Results: patent US20240287202A1 (XYPHOS BIOSCIENCES, published 2024)

Columns and labels:
[1] = target: T1, A1-A2 domain of human MICA*001 with C-terminal 6x-His tag (monomer) (human, UniProt Q29983 24-205); experiment: Octet BLI, Fc-iNKG2D.AF on AHC tips, monomeric ligand (FIG. 3A)
T1 construct: range 24-205; also called MIC-His ligand
T1 sequence: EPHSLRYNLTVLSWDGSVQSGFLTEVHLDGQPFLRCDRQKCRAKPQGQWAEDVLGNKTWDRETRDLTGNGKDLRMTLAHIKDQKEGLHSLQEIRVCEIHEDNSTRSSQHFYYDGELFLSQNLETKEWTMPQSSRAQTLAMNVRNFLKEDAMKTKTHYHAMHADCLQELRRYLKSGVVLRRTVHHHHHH
Description: (§1) Library design and phage panning performed was as described for iNKG2D. […] Data are representative of two experiments. […] Error bars represent ±SD of technical replicates.

[2] = target: T2, A1-A2 domain of human ULBP3 with C-terminal 6x-His tag (monomer) (human, UniProt Q9BZM4 30-212); experiment: as above
T2 construct: range 30-212; also called MIC-His ligand
T2 sequence: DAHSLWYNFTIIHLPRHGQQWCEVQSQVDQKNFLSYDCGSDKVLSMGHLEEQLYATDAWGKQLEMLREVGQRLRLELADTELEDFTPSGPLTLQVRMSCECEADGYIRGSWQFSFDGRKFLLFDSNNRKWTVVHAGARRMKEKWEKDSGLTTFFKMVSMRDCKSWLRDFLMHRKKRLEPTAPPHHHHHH
Description: as §1

[3] = target: T3, A1-A2 domain of human MICB with C-terminal 6x-His tag (monomer) (human, UniProt Q29980 24-205); experiment: Octet BLI, response against concentration (legend: monomeric ligands; axis on the sheet: nM Fc-iNKG2D.AF)
T3 construct: range 24-205; also called MIC-His ligand
T3 sequence: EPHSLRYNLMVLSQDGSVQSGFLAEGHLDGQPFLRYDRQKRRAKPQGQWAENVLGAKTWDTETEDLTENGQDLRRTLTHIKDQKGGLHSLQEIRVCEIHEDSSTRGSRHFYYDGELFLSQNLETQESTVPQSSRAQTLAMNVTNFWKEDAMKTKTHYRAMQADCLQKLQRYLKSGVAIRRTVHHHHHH

B1: Fc-iNKG2D.AF (NKG2D ectodomain Y152A/Y199F fused to the C-terminus of human IgG1 Fc) (Fc fusion)
chain: IEGRFLNSLFNQEVQIPLTESYCGPCPKNWICYKNNCYQFFDESKNWYESQASCMSQNASLLKVYSKEDQDLLKLVKSAHWMGLVHIPTNGSWQWEDGSILSPNLLTIIEMQKGDCALYASSFKGFIENCSTPNTYICMQRTV
notes: range 78-216; also called Fc-NKG2D.AF; not shown: human IgG1 Fc
binding result [1]: no binding | binding result [2]: no binding | binding result [3]: binds
